Measured values published in patent US20180362665A1 (KATHOLIEKE UNIVERSITEIT LEUVEN, published 2018).

Molecular target: ovine ADAMTS13 (in sheep plasma) (sheep)
Test: cell-based or functional assay

B1: anti-ADAMTS13 monoclonal antibody 17C7 (antibody, V domains shown)
VH: EVQLVESGGDLVKSGGSLKLSCAASGFIFSNYAMSWVRQTPEKRLEWGATITTGGFYTFYSDSVKGRFTISRDNAKNTLYLQMSSLRSEDTAMYYCARHRYDDYYALDYWGQGTSVTVSS
VL: ENVLTQSPAIMSTSPGEKVTMTCNVSSSVSYMRWFQQKSSTSPKLWIYDTSKLASGVPGRFSGSGSGHSYSLTISSMEADDVATYYCFQGNGYPLTFGAGTKLELK
  half maximal inhibitory concentration (IC50) of ADAMTS13 activity in ovine plasma, FRETS-VWF71 assay: 2.4 mg/L
